# From article PMC4036362, “Normal Activation of Discoidin Domain Receptor 1 Mutants with Disulfide Cross-links, Insertions, or Deletions in the Extracellular Juxtamembrane Region” (The Journal of Biological Chemistry, 2014)
# B1: DDR1 mutant [human] / itself (parent)
# chain: DADMKGHFDPAKCRYALGMQDRTIPDSDISASSSWSDSTAARHSRLESSDGDGAWCPAGSVFPKEEEYLQVDLQRLHLVALVGTQGRHAGGLGKEFSRSYRLRYSRDGRRWMGWKDRWGQEVISGNEDPEGVVLKDLGPPMVARLVRFYPRADRVMSVCLRVELYGCLWRDGLLSYTAPVGQTMYLSEAVYLNDSTYDGHTVGGLQYGGLGQLADGVVGLDDFRKSQELRVWPGYDYVGWSNHSFSSGYVEMEFEFDRLRAFQAMQVHSNNMHTLGARLPGGVECRFRRGPAMAWEGEPMRHNLGGNLGDPRARAVSVPLGGRVARFLQCRFLFAGPWLLFSEISFISDVVNNSSPALGGTFPPAPWWPPGPPPTNFSSLELEPRGQQPVAKAEGSPTAILIGCLVAIILLLLLIIALMLWRLHWRRLLSKAERRVLEEELTVHLSVPGDTILINNRPGPREPPPYQEPRPRGNPPHSAPCVPNGSALLLSNPAYRLLLATYARPPRGPGPPTPAWAKPTNTQAYSGDYMEPEKPGAPLLPPPPQNSVPHYAEADIVTLQGVTGGNTYAVPALPPGAVGDGPPRVDFPRSRLRFKEKLGEGQFGEVHLCEVDSPQDLVSLDFPLNVRKGHPLLVAVKILRPDATKNARNDFLKEVKIMSRLKDPNIIRLLGVCVQDDPLCMITDYMENGDLNQFLSAHQLEDKAAEGAPGDGQAAQGPTISYPMLLHVAAQIASGMRYLATLNFVHRDLATRNCLVGENFTIKIADFGMSRNLYAGDYYRVQGRAVLPIRWMAWECILMGKFTTASDVWAFGVTLWEVLMLCRAQPFGQLTDEQVIENAGEFFRDQGRQVYLSRPPACPQGLYELMLRCWSRESEQRPPFSQLHRFLAEDALNTV
# Variants of: B1
# Assay: disulfide cross-linking, nonreducing SDS-PAGE and Western blotting with anti-DDR1 antibodies
# Conditions: transiently transfected HEK293 cells, lysed in 30 mM NEM, read off a plot
# [1] = 10 μg/ml collagen I for 90 min at 37 °C
screen value [1],screen value (unstimulated),"screen value (10 μg/ml collagen I for 90 min at 37 °C, dimeric plus higher oligomeric forms)","screen value (unstimulated, dimeric plus higher oligomeric forms)",Variant
82%,84%,,,chain 1 S396C
4.5%,3.5%,,,chain 1 L405C C404A
85%,,,,chain 1 V390C C404A
93%,94%,,,chain 1 T398C
82%,83%,,,chain 1 V390C
81%,82%,,,chain 1 P397C

# The remaining lines, values behind:
Variant,screen value [1],screen value (unstimulated),"screen value (10 μg/ml collagen I for 90 min at 37 °C, dimeric plus higher oligomeric forms)","screen value (unstimulated, dimeric plus higher oligomeric forms)"
chain 1 A391C,80%,81%,,
chain 1 E394C,72%,75%,,
chain 1 G403C,30%,32%,,
chain 1 E394C C404A,81%,83%,,
chain 1 I402C,62%,65%,,
chain 1 C404A,,4.5%,,
chain 1 A399C,59%,61%,59%,61%
chain 1 G403C C404A,35%,37%,,
chain 1 I400C,56%,60%,,
chain 1 A393C,81%,84%,,
chain 1 L401C,61%,60%,,
chain 1 L405C,3.5%,5%,,
chain 1 K392C,76%,81%,,
chain 1 G395C,,73%,,
